B1: N^ε1-[(4S)-4-carboxy-4-[[(4S)-4-carboxy-4-(19-carboxynonadecanoylamino)butanoyl]amino]butanoyl]-[Glu14,Arg17,Pro21,Pro27,Arg34]-h-amylin (peptide)
peptide: K([γGlu-γGlu-C20 diacid])CNTATCATQRLAEFLRHSSPNFGAIPSSTNVGRNTY-NH2
modifications: disulfide 2-7; N-terminus assumed
SMILES: CC[C@H](C)[C@H](NC(=O)[C@H](C)NC(=O)CNC(=O)[C@H](Cc1ccccc1)NC(=O)[C@H](CC(N)=O)NC(=O)[C@@H]1CCCN1C(=O)[C@H](CO)NC(=O)[C@H](CO)NC(=O)[C@H](Cc1c[nH]cn1)NC(=O)[C@H](CCCNC(=N)N)NC(=O)[C@H](CC(C)C)NC(=O)[C@H](Cc1ccccc1)NC(=O)[C@H](CCC(=O)O)NC(=O)[C@H](C)NC(=O)[C@H](CC(C)C)NC(=O)[C@H](CCCNC(=N)N)NC(=O)[C@H](CCC(N)=O)NC(=O)[C@@H](NC(=O)[C@H](C)NC(=O)[C@@H]1CSSC[C@H](NC(=O)[C@@H](N)CCCCNC(=O)CC[C@H](NC(=O)CC[C@H](NC(=O)CCCCCCCCCCCCCCCCCCC(=O)O)C(=O)O)C(=O)O)C(=O)N[C@@H](CC(N)=O)C(=O)N[C@@H]([C@@H](C)O)C(=O)N[C@@H](C)C(=O)N[C@@H]([C@@H](C)O)C(=O)N1)[C@@H](C)O)C(=O)N1CCC[C@H]1C(=O)N[C@@H](CO)C(=O)N[C@@H](CO)C(=O)N[C@H](C(=O)N[C@@H](CC(N)=O)C(=O)N[C@H](C(=O)NCC(=O)N[C@@H](CCCNC(=N)N)C(=O)N[C@@H](CC(N)=O)C(=O)N[C@H](C(=O)N[C@@H](Cc1ccc(O)cc1)C(N)=O)[C@@H](C)O)C(C)C)[C@@H](C)O
notes: also called 88; compound 88
B2: N^ε1-[(4S)-4-carboxy-4-[[(4S)-4-carboxy-4-(19-carboxynonadecanoylamino)butanoyl]amino]butanoyl]-[Glu14,Arg17,Pro21,Pro27,His34]-h-amylin (peptide)
peptide: K([γGlu-γGlu-C20 diacid])CNTATCATQRLAEFLRHSSPNFGAIPSSTNVGHNTY-NH2
modifications: disulfide 2-7; N-terminus assumed
SMILES: CC[C@H](C)[C@H](NC(=O)[C@H](C)NC(=O)CNC(=O)[C@H](Cc1ccccc1)NC(=O)[C@H](CC(N)=O)NC(=O)[C@@H]1CCCN1C(=O)[C@H](CO)NC(=O)[C@H](CO)NC(=O)[C@H](Cc1c[nH]cn1)NC(=O)[C@H](CCCNC(=N)N)NC(=O)[C@H](CC(C)C)NC(=O)[C@H](Cc1ccccc1)NC(=O)[C@H](CCC(=O)O)NC(=O)[C@H](C)NC(=O)[C@H](CC(C)C)NC(=O)[C@H](CCCNC(=N)N)NC(=O)[C@H](CCC(N)=O)NC(=O)[C@@H](NC(=O)[C@H](C)NC(=O)[C@@H]1CSSC[C@H](NC(=O)[C@@H](N)CCCCNC(=O)CC[C@H](NC(=O)CC[C@H](NC(=O)CCCCCCCCCCCCCCCCCCC(=O)O)C(=O)O)C(=O)O)C(=O)N[C@@H](CC(N)=O)C(=O)N[C@@H]([C@@H](C)O)C(=O)N[C@@H](C)C(=O)N[C@@H]([C@@H](C)O)C(=O)N1)[C@@H](C)O)C(=O)N1CCC[C@H]1C(=O)N[C@@H](CO)C(=O)N[C@@H](CO)C(=O)N[C@H](C(=O)N[C@@H](CC(N)=O)C(=O)N[C@H](C(=O)NCC(=O)N[C@@H](Cc1c[nH]cn1)C(=O)N[C@@H](CC(N)=O)C(=O)N[C@H](C(=O)N[C@@H](Cc1ccc(O)cc1)C(N)=O)[C@@H](C)O)C(C)C)[C@@H](C)O
notes: also called 87; compound 87
B3: N^ε1-[(4S)-4-carboxy-4-[[(4S)-4-carboxy-4-(19-carboxynonadecanoylamino)butanoyl]amino]butanoyl]-[Glu14,Arg17,Pro21,Pro27,Arg35]-h-amylin (peptide)
peptide: K([γGlu-γGlu-C20 diacid])CNTATCATQRLAEFLRHSSPNFGAIPSSTNVGSRTY-NH2
modifications: disulfide 2-7; N-terminus assumed
SMILES: CC[C@H](C)[C@H](NC(=O)[C@H](C)NC(=O)CNC(=O)[C@H](Cc1ccccc1)NC(=O)[C@H](CC(N)=O)NC(=O)[C@@H]1CCCN1C(=O)[C@H](CO)NC(=O)[C@H](CO)NC(=O)[C@H](Cc1c[nH]cn1)NC(=O)[C@H](CCCNC(=N)N)NC(=O)[C@H](CC(C)C)NC(=O)[C@H](Cc1ccccc1)NC(=O)[C@H](CCC(=O)O)NC(=O)[C@H](C)NC(=O)[C@H](CC(C)C)NC(=O)[C@H](CCCNC(=N)N)NC(=O)[C@H](CCC(N)=O)NC(=O)[C@@H](NC(=O)[C@H](C)NC(=O)[C@@H]1CSSC[C@H](NC(=O)[C@@H](N)CCCCNC(=O)CC[C@H](NC(=O)CC[C@H](NC(=O)CCCCCCCCCCCCCCCCCCC(=O)O)C(=O)O)C(=O)O)C(=O)N[C@@H](CC(N)=O)C(=O)N[C@@H]([C@@H](C)O)C(=O)N[C@@H](C)C(=O)N[C@@H]([C@@H](C)O)C(=O)N1)[C@@H](C)O)C(=O)N1CCC[C@H]1C(=O)N[C@@H](CO)C(=O)N[C@@H](CO)C(=O)N[C@H](C(=O)N[C@@H](CC(N)=O)C(=O)N[C@H](C(=O)NCC(=O)N[C@@H](CO)C(=O)N[C@@H](CCCNC(=N)N)C(=O)N[C@H](C(=O)N[C@@H](Cc1ccc(O)cc1)C(N)=O)[C@@H](C)O)C(C)C)[C@@H](C)O
notes: also called 89; compound 89
B4: N^ε1-[(4S)-4-carboxy-4-[[(4S)-4-carboxy-4-(19-carboxynonadecanoylamino)butanoyl]amino]butanoyl]-[Glu14,Arg17,Pro21,Pro27,Pro37]-h-amylin (peptide)
peptide: K([γGlu-γGlu-C20 diacid])CNTATCATQRLAEFLRHSSPNFGAIPSSTNVGSNTP-NH2
modifications: disulfide 2-7; N-terminus assumed
SMILES: CC[C@H](C)[C@H](NC(=O)[C@H](C)NC(=O)CNC(=O)[C@H](Cc1ccccc1)NC(=O)[C@H](CC(N)=O)NC(=O)[C@@H]1CCCN1C(=O)[C@H](CO)NC(=O)[C@H](CO)NC(=O)[C@H](Cc1c[nH]cn1)NC(=O)[C@H](CCCNC(=N)N)NC(=O)[C@H](CC(C)C)NC(=O)[C@H](Cc1ccccc1)NC(=O)[C@H](CCC(=O)O)NC(=O)[C@H](C)NC(=O)[C@H](CC(C)C)NC(=O)[C@H](CCCNC(=N)N)NC(=O)[C@H](CCC(N)=O)NC(=O)[C@@H](NC(=O)[C@H](C)NC(=O)[C@@H]1CSSC[C@H](NC(=O)[C@@H](N)CCCCNC(=O)CC[C@H](NC(=O)CC[C@H](NC(=O)CCCCCCCCCCCCCCCCCCC(=O)O)C(=O)O)C(=O)O)C(=O)N[C@@H](CC(N)=O)C(=O)N[C@@H]([C@@H](C)O)C(=O)N[C@@H](C)C(=O)N[C@@H]([C@@H](C)O)C(=O)N1)[C@@H](C)O)C(=O)N1CCC[C@H]1C(=O)N[C@@H](CO)C(=O)N[C@@H](CO)C(=O)N[C@H](C(=O)N[C@@H](CC(N)=O)C(=O)N[C@H](C(=O)NCC(=O)N[C@@H](CO)C(=O)N[C@@H](CC(N)=O)C(=O)N[C@H](C(=O)N1CCC[C@H]1C(N)=O)[C@@H](C)O)C(C)C)[C@@H](C)O
notes: also called 13; compound 13
B5: N^ε1-[(4S)-4-carboxy-4-[[(4S)-4-carboxy-4-(19-carboxynonadecanoylamino)butanoyl]amino]butanoyl]-[His14,Arg17,Pro21,Pro27]-h-amylin (peptide)
peptide: K([γGlu-γGlu-C20 diacid])CNTATCATQRLAHFLRHSSPNFGAIPSSTNVGSNTY-NH2
modifications: disulfide 2-7; N-terminus assumed
SMILES: CC[C@H](C)[C@H](NC(=O)[C@H](C)NC(=O)CNC(=O)[C@H](Cc1ccccc1)NC(=O)[C@H](CC(N)=O)NC(=O)[C@@H]1CCCN1C(=O)[C@H](CO)NC(=O)[C@H](CO)NC(=O)[C@H](Cc1c[nH]cn1)NC(=O)[C@H](CCCNC(=N)N)NC(=O)[C@H](CC(C)C)NC(=O)[C@H](Cc1ccccc1)NC(=O)[C@H](Cc1c[nH]cn1)NC(=O)[C@H](C)NC(=O)[C@H](CC(C)C)NC(=O)[C@H](CCCNC(=N)N)NC(=O)[C@H](CCC(N)=O)NC(=O)[C@@H](NC(=O)[C@H](C)NC(=O)[C@@H]1CSSC[C@H](NC(=O)[C@@H](N)CCCCNC(=O)CC[C@H](NC(=O)CC[C@H](NC(=O)CCCCCCCCCCCCCCCCCCC(=O)O)C(=O)O)C(=O)O)C(=O)N[C@@H](CC(N)=O)C(=O)N[C@@H]([C@@H](C)O)C(=O)N[C@@H](C)C(=O)N[C@@H]([C@@H](C)O)C(=O)N1)[C@@H](C)O)C(=O)N1CCC[C@H]1C(=O)N[C@@H](CO)C(=O)N[C@@H](CO)C(=O)N[C@H](C(=O)N[C@@H](CC(N)=O)C(=O)N[C@H](C(=O)NCC(=O)N[C@@H](CO)C(=O)N[C@@H](CC(N)=O)C(=O)N[C@H](C(=O)N[C@@H](Cc1ccc(O)cc1)C(N)=O)[C@@H](C)O)C(C)C)[C@@H](C)O
notes: also called 92; compound 92

Numbered stars: 1 amine (or outer) side, 2 acyl side, 3 side chain; on linkers, the order of the positions; unused ones are H or OH. Bridge positions count the residues as written; N and C are the ends. Side chains are listed from the residue outwards. Ends that are not written are not given here. * marks the point of attachment. C20 diacid = O=C(O)CCCCCCCCCCCCCCCCCCC(=O)*; γGlu = O=C(O)[C@H](CCC(=O)[*:2])N[*:1]

The target of this assay is T1, human amylin receptor (amylin 3(a) receptor: human calcitonin receptor with RAMP-3) (human, UniProt P30988 25-474; O60896 24-148).
T1 construct: whole, on cells; also called hAmylin-R; hAmylinR
T1 sequence (looked up) 1: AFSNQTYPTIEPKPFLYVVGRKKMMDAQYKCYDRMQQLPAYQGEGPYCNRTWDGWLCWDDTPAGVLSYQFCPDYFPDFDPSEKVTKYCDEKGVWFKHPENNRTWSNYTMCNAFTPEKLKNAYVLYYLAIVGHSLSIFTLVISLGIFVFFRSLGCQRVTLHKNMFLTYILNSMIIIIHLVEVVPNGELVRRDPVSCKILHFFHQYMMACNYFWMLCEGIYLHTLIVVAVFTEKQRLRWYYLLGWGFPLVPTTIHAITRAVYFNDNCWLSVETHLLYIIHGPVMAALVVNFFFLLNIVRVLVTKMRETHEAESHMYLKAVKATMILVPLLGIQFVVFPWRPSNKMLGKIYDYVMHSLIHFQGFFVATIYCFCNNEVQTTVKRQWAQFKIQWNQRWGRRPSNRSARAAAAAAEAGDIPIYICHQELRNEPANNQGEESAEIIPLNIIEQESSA
T1 sequence (looked up) 2: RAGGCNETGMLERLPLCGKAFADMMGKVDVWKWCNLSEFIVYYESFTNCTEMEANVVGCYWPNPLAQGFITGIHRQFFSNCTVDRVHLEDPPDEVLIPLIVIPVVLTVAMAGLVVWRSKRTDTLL
Briefly: SPA displacement of 125I-rat amylin, hAmylin 3(a) receptor membranes. In a few lines:
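One-site competition analysis of SPA counts yielded IC₅₀ as a measure of affinity. Membranes were at 35 ng/μL final; incubation was 120 min at 25° C, pH 7.4.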
(In general: Displacement assays read how much labelled ligand stays bound in the presence of the test substance.)
Consider B1, for which the IC50 (as a rule, the concentration at which inhibition is half-maximal) came out at 0.75 nM.
The value for B2 was 0.633 nM; that for B3 was 1.16 nM.
With B4, the IC50 came out at 0.264 nM.
The figure for B5 is 0.179 nM.

Values taken from patent US20140087995A1 (published 2014).
